{
  "source": "patent US20090018099",
  "key": {"[1]": {"target": "recombinant GST-Flag-CERT(1-138) wild type fusion protein, produced in E. coli [GST: P08515]"}, "[2]": {"target": "recombinant GST-Flag-CERT-S132A(1-138) fusion protein, produced in E. coli [GST: P08515]"}},
  "data": [
    {"protein": "purified PKD1 (protein) MSAPPVLRPPSPLLPVAAAAAAAAAALVPGSGPGPAPFLAPVAAPVGGISFHLQIGLSREPVLLLQDSSGDYSLAHVREMACSIVDQKFPECGFYGMYDKILLFRHDPTSENILQLVKAASDIQEGDLIEVVLSASATFEDFQIRPHALFVHSYRAPAFCDHCGEMLWGLVRQGLKCEGCGLNYHKRCAFKIPNNCSGVRRRRLSNVSLTGVSTIRTSSAELSTSAPDEPLLQKSPSESFIGREKRSNSQSYIGRPIHLDKILMSKVKVPHTFVIHSYTRPTVCQYCKKLLKGLFRQGLQCKDCRFNCHKRCAPKVPNNCLGEVTINGDLLSPGAESDVVMEEGSDDNDSERNSGLMDDMEEAMVQDAEMAMAECQNDSGEMQDPDPDHEDANRTISPSTSNNIPLMRVVQSVKHTKRKSSTVMKEGWMVHYTSKDTLRKRHYWRLDSKCITLFQNDTGSRYYKEIPLSEILSLEPVKTSALIPNGANPHCFEITTANVVYYVGENVVNPSSPSPNNSVLTSGVGADVARMWEIAIQHALMPVIPKGSSVGTGTNLHRDISVSISVSNCQIQENVDISTVYQIFPDEVLGSGQFGIVYGGKHRKTGRDVAIKIIDKLRFPTKQESQLRNEVAILQNLHHPGVVNLECMFETPERVFVVMEKLHGDMLEMILSSEKGRLPEHITKFLITQILVALRHLHFKNIVHCDLKPENVLLASADPFPQVKLCDFGFARIIGEKSFRRSVVGTPAYLAPEVLRNKGYNRSLDMWSVGVIIYVSLSGTFPFNEDEDIHDQIQNAAFMYPPNPWKEISHEAIDLINNLLQVKMRKRYSVDKTLSHPWLQDYQTWLDLRELECKIGERYITHESDDLRWEKYAGEQGLQYPTHLINPSASHSDTPETEETEMKALGERVSIL", "values": [
      {"measurement": "incorporation of radioactivity (in vitro kinase assay with [gamma-32P]-ATP, PhosphoImager)", "setting": "[1]", "value": "incorporation of radioactivity is detected"},
      {"measurement": "incorporation of radioactivity (in vitro kinase assay with [gamma-32P]-ATP, PhosphoImager)", "setting": "[2]", "value": "This is significantly impaired in the case of the CERT-S132A fusion protein"}
    ]}
  ]
}
